Values belong to the molecule of their own block, whether it stands above or below them.
Key:
[1] = target: T1, PAN (Proteasome Activating Nucleotidase), with T20S (Methanocaldococcus jannaschii, UniProt Q58576); test: GFPssrA unfolding, loss of fluorescence […], ATPγS:ATP ratio series; type: biochemical; settings: competing with ATP, 2 mM total nucleotide, 0.2 μM GFPssrA, 400 nM T20S, 20 mM MgCl2, pH 7.5
T1 construct: homohexamer; with Proteasome subunit alpha (20S proteasome of Thermoplasma acidophilum, T20S); Proteasome subunit beta (20S proteasome of Thermoplasma acidophilum, T20S)

[2] = target: PAN (Proteasome Activating Nucleotidase) (UniProt Q58576)
purified protein = substrate: Nc1ncnc2c1ncn2[C@@H]1O[C@H](COP(=O)(O)OP(=O)(O)OP(=O)(O)O)[C@@H](O)[C@H]1O; test: purified protein; type: biochemical, Methanocaldococcus jannaschii; settings: 0.2 μM GFPssrA, 400 nM T20S, 20 mM MgCl2, pH 7.5, ATP hydrolysis read-out, printed unit doubtful: ATP was varied 0–3 mM, so mM likely meant

T1 sequence (P25156 whole entry partner, one chain of several): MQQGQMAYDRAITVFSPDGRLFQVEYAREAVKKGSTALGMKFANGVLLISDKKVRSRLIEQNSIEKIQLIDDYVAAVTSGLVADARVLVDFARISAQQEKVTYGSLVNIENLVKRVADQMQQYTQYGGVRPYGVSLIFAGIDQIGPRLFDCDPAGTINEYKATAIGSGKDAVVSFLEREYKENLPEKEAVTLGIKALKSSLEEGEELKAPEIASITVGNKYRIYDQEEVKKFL
T1 sequence (P28061 9-211 partner, one chain of several): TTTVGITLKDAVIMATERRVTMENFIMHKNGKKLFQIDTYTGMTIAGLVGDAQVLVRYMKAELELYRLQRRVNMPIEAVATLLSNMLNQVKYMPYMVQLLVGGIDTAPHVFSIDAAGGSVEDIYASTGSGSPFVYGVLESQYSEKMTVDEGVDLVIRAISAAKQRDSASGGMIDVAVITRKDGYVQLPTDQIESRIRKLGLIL

Molecule: Nc1ncnc2c1ncn2[C@@H]1O[C@H](COP(=O)(O)OP(=O)(O)OP(O)(O)=S)[C@@H](O)[C@H]1O [ATPγS]
GFPssrA unfolding, loss of fluorescence 485/510, ATPγS:ATP ratio series [1]: as the ATPγS:ATP ratio increased, GFPssrA unfolding rate decreased

Km for GFPssrA in ATP-dependent unfolding by PAN (steady-state loss of GFP fluorescence, ex/em 485/510; GFPssrA 0 to 10 μM, 50 nM PAN, 400 nM T20S, 2 mM ATP) [2]: 0.187 µM
Molecule: GFPssrA (GFP with an unstructured ssrA tag)

B1: PAN (Proteasome Activating Nucleotidase), with T20S (Methanocaldococcus jannaschii DSM 2661) (protein)
chain: MVFEEFISTELKKEKKAFTEEFKEEKEINDNSNLKNDLLKEELQEKARIAELESRILKLELEKKELERENLQLMKENEILRRELDRMRVPPLIVGTVVDKVGERKVVVKSSTGPSFLVNVSHFVNPDDLAPGKRVCLNQQTLTVVDVLPENKDYRAKAMEVDERPNVRYEDIGGLEKQMQEIREVVELPLKHPELFEKVGIEPPKGILLYGPPGTGKTLLAKAVATETNATFIRVVGSELVKKFIGEGASLVKDIFKLAKEKAPSIIFIDEIDAIAAKRTDALTGGDREVQRTLMQLLAEMDGFDARGDVKIIGATNRPDILDPAILRPGRFDRIIEVPAPDEKGRLEILKIHTRKMNLAEDVNLEEIAKMTEGCVGAELKAICTEAGMNAIRELRDYVTMDDFRKAVEKIMEKKKVKVKEPAHLDVLYR
notes: homohexamer; with Proteasome subunit alpha (20S proteasome of Thermoplasma acidophilum, T20S); Proteasome subunit beta (20S proteasome of Thermoplasma acidophilum, T20S)
Km (purified protein): 0.000397 ± 1.7e-05 mM

— paper PMC5378721, “The Proteasomal ATPases Use a Slow but Highly Processive Strategy to Unfold Proteins” (Frontiers in Molecular Biosciences, 2017)
